Reference: the supplement of paper PMC5998384

Assays:
HeLa Kyoto [1] = test: solubility change mitosis vs G1/S (difference of NP-40 vs SDS log2 ratios) (log2 ratio difference); higher = more soluble in mitosis
HeLa Kyoto [2] = test: solubility in G1/S (NP-40 vs SDS abundance) (log2 ratio); higher = more soluble; settings: cell cycle stage: G1/S
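For solubility change mitosis vs G1/S (difference of NP-40 vs SDS log2 ratios) in this document: synchronized HeLa Kyoto cells (double thymidine block for G1/S, nocodazole release for mitosis), protein amounts in NP-40 versus SDS lysates quantified by mass spectrometry, three biological replicates.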
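For solubility in G1/S (NP-40 vs SDS abundance) in this document: HeLa Kyoto cells arrested at G1/S by double thymidine block, proteins quantified by TMT10plex mass spectrometry in mild NP-40 versus SDS extracts, three biological replicates.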

Sequence of EPB41L5 (chain, as listed by the source): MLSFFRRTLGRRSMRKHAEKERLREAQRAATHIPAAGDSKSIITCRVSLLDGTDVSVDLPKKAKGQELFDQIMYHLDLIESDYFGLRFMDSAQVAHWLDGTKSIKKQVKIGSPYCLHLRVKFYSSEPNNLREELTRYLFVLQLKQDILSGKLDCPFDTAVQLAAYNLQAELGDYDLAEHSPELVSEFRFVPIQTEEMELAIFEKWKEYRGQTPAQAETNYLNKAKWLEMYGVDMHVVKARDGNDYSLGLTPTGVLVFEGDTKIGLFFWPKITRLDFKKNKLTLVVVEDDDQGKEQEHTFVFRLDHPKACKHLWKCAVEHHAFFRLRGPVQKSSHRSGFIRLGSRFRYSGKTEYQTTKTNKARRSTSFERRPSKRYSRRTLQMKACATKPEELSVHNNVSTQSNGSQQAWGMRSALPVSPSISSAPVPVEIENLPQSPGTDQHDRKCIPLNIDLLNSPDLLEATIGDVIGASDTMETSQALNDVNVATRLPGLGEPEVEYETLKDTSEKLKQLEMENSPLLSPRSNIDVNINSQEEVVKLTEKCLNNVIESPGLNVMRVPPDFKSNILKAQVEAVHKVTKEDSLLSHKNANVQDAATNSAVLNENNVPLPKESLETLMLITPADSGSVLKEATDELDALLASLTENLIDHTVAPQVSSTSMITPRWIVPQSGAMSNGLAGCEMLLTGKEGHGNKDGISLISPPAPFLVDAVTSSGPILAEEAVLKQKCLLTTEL

Substance	solubility change mitosis (log2) (HeLa Kyoto [1])	solubility in G1/S (log2) (HeLa Kyoto [2])
MNSSSANITYASRKRRKPVQKTVKPIPAEGIKSNPSKRHRDRLNTELDRLASLLPFPQDVINKLDKLSVLRLSVSYLRAKSFFDVALKSSPTERNGGQDNCRAANFREGLNLQEGEFLLQALNGFVLVVTTDALVFYASSTIQDYLGFQQSDVIHQSVYELIHTEDRAEFQRQLHWALNPSQCTESGQGIEEATGLPQTVVCYNPDQIPPENSPLMERCFICRLRCLLDNSSGFLAMNFQGKLKYLHGQKKKGKDGSILPPQLALFAIATPLQPPSILEIRTKNFIFRTKHKLDFTPIGCDAKGRIVLGYTEAELCTRGSGYQFIHAADMLYCAESHIRMIKTGESGMIVFRLLTKNNRWTWVQSNARLLYKNGRPDYIIVTQRPLTDEEGTEHLRKRNTKLPFMFTTGEAVLYEATNPFPAIMDPLPLRTKNGTSGKDSATTSTLSKDSLNPSSLLAAMMQQDESIYLYPASSTSSTAPFENNFFNESMNECRNWQDNTAPMGNDTILKHEQIDQPQDVNSFAGGHPGLFQDSKNSDLYSIMKNLGIDFEDIRHMQNEKFFRNDFSGEVDFRDIDLTDEILTYVQDSLSKSPFIPSDYQQQQSLALNSSCMVQEHLHLEQQQQHHQKQVVVEPQQQLCQKMKHMQVNGMFENWNSNQFVPFNCPQQDPQQYNVFTDLHGISQEFPYKSEMDSMPYTQNFISCNQPVLPQHSKCTELDYPMGSFEPSPYPTTSSLEDFVTCLQLPENQKHGLNPQSAIITPQTCYAGAVSMYQCQPEPQHTHVGQMQYNPVLPGQQAFLNKFQNGVLNETYPAELNNINNTQTTTHLQPLHHPSEARPFPDLTSSGFL [AHR]	-0.105	-0.135
ICE1	0.51	-0.864
MASGVGAAFEELPHDGTCDECEPDEAPGAEEVCRECGFCYCRRHAEAHRQKFLSHHLAEYVHGSQAWTPPADGEGAGKEEAEVKVEQEREIESEAGEESESEEESESEEESETEEESEDESDEESEEDSEEEMEDEQESEAEEDNQEEGESEAEGETEAESEFDPEIEMEAERVAKRKCPDHGLDLSTYCQEDRQLICVLCPVIGAHQGHQLSTLDEAFEELRSKDSGGLKAAMIELVERLKFKSSDPKVTRDQMKMFIQQEFKKVQKVIADEEQKALHLVDIQEAMATAHVTEILADIQSHMDRLMTQMAQAKEQLDTSNESAEPKAEGDEEGPSGASEEEDT [TRIM44]	-0.202	-0.118
MTSFEDADTEETVTCLQMTVYHPGQLQCGIFQSISFNREKLPSSEVVKFGRNSNICHYTFQDKQVSRVQFSLQLFKKFNSSVLSFEIKNMSKKTNLIVDSRELGYLNKMDLPYRCMVRFGEYQFLMEKEDGESLEFFETQFILSPRSLLQENNWPPHRPIPEYGTYSLCSSQSSSPTEMDENES [TIFA]	-0.224	0.0872
CHD1	0.383	-2.28
MEEGNNNEEVIHLNNFHCHRGQEWINLRDGPITISDSSDEERIPMLVTPAPQQHEEEDLDDDVILTEDDSEDDYGEFLDLGPPGISEFTKPSGQTEREPKPGPSHNQAANDIVNPRSEQKVIILEEGSLLYTESDPLETQNQSSEDSETELLSNLGESAALADDQAIEEDCWLDHPYFQSLNQQPREITNQVVPQERQPEAELGRLLFQHEFPGPAFPRPEPQQGGISGPSSPQPAHPLGEFEDQQLASDDEEPGPAFPMQESQEPNLENIWGQEAAEVDQELVELLVKETEARFPDVANGFIEEIIHFKNYYDLNVLCNFLLENPDYPKREDRIIINPSSSLLASQDETKLPKIDFFDYSKLTPLDQRCFIQAADLLMADFKVLSSQDIKWALHELKGHYAITRKALSDAIKKWQELSPETSGKRKKRKQMNQYSYIDFKFEQGDIKIEKRMFFLENKRRHCRSYDRRALLPAVQQEQEFYEQKIKEMAEHEDFLLALQMNEEQYQKDGQLIECRCCYGEFPFEELTQCADAHLFCKECLIRYAQEAVFGSGKLELSCMEGSCTCSFPTSELEKVLPQTILYKYYERKAEEEVAAAYADELVRCPSCSFPALLDSDVKRFSCPNPHCRKETCRKCQGLWKEHNGLTCEELAEKDDIKYRTSIEEKMTAARIRKCHKCGTGLIKSEGCNRMSCRCGAQMCYLCRVSINGYDHFCQHPRSPGAPCQECSRCSLWTDPTEDDEKLIEEIQKEAEEEQKRKNGENTFKRIGPPLEKPVEKVQRVEALPRPVPQNLPQPQMPPYAFAHPPFPLPPVRPVFNNFPLNMGPIPAPYVPPLPNVRVNYDFGPIHMPLEHNLPMHFGPQPRHRF [RNF216]	-0.122	-0.195
MAGGPGPGEPAAPGAQHFLYEVPPWVMCRFYKVMDALEPADWCQFAALIVRDQTELRLCERSGQRTASVLWPWINRNARVADLVHILTHLQLLRARDIITAWHPPAPLPSPGTTAPRPSSIPAPAEAEAWSPRKLPSSASTFLSPAFPGSQTHSGPELGLVPSPASLWPPPPSPAPSSTKPGPESSVSLLQGARPFPFCWPLCEISRGTHNFSEELKIGEGGFGCVYRAVMRNTVYAVKRLKENADLEWTAVKQSFLTEVEQLSRFRHPNIVDFAGYCAQNGFYCLVYGFLPNGSLEDRLHCQTQACPPLSWPQRLDILLGTARAIQFLHQDSPSLIHGDIKSSNVLLDERLTPKLGDFGLARFSRFAGSSPSQSSMVARTQTVRGTLAYLPEEYIKTGRLAVDTDTFSFGVVVLETLAGQRAVKTHGARTKYLKDLVEEEAEEAGVALRSTQSTLQAGLAADAWAAPIAMQIYKKHLDPRPGPCPPELGLGLGQLACCCLHRRAKRRPPMTQVYERLEKLQAVVAGVPGHSEAASCIPPSPQENSYVSSTGRAHSGAAPWQPLAAPSGASAQAAEQLQRGPNQPVESDESLGGLSAALRSWHLTPSCPLDPAPLREAGCPQGDTAGESSWGSGPGSRPTAVEGLALGSSASSSSEPPQIIINPARQKMVQKLALYEDGALDSLQLLSSSSLPGLGLEQDRQGPEESDEFQS [IRAK1]	0.07	0.247
EPB41L5	0.268	-0.503
MSENNKNSLESSLRQLKCHFTWNLMEGENSLDDFEDKVFYRTEFQNREFKATMCNLLAYLKHLKGQNEAALECLRKAEELIQQEHADQAEIRSLVTWGNYAWVYYHMGRLSDVQIYVDKVKHVCEKFSSPYRIESPELDCEEGWTRLKCGGNQNERAKVCFEKALEKKPKNPEFTSGLAIASYRLDNWPPSQNAIDPLRQAIRLNPDNQYLKVLLALKLHKMREEGEEEGEGEKLVEEALEKAPGVTDVLRSAAKFYRRKDEPDKAIELLKKALEYIPNNAYLHCQIGCCYRAKVFQVMNLRENGMYGKRKLLELIGHAVAHLKKADEANDNLFRVCSILASLHALADQYEDAEYYFQKEFSKELTPVAKQLLHLRYGNFQLYQMKCEDKAIHHFIEGVKINQKSREKEKMKDKLQKIAKMRLSKNGADSEALHVLAFLQELNEKMQQADEDSERGLESGSLIPSASSWNGE [IFIT2]	-0.2	0.432
SOGA1	0.0556	-0.0256
MGETKIIYHLDGQETPYLVKLPLPAERVTLADFKGVLQRPSYKFFFKSMDDDFGVVKEEISDDNAKLPCFNGRVVSWLVSAEGSHPDPAPFCADNPSELPPPMERTGGIGDSRPPSFHPHAGGGSQENLDNDTETDSLVSAQRERPRRRDGPEHATRLNGTAKGERRREPGGYDSSSTLMSSELETTSFFDSDEDDSTSRFSSSTEQSSASRLMRRHKRRRRKQKVSRIERSSSFSSITDSTMSLNIITVTLNMEKYNFLGISIVGQSNERGDGGIYIGSIMKGGAVAADGRIEPGDMLLQVNEINFENMSNDDAVRVLREIVHKPGPITLTVAKCWDPSPRGCFTLPRSEPIRPIDPAAWVSHTAAMTGTFPAYGMSPSLSTITSTSSSITSSIPDTERLDDFHLSIHSDMAAIVKAMASPESGLEVRDRMWLKITIPNAFIGSDVVDWLYHNVEGFTDRREARKYASNLLKAGFIRHTVNKITFSEQCYYIFGDLCGNMANLSLHDHDGSSGASDQDTLAPLPHPGAAPWPMAFPYQYPPPPHPYNPHPGFPELGYSYGGGSASSQHSEGSRSSGSNRSGSDRRKEKDPKAGDSKSGGSGSESDHTTRSSLRGPRERAPSERSGPAASEHSHRSHHSLASSLRSHHTHPSYGPPGVPPLYGPPMLMMPPPPAAMGPPGAPPGRDLASVPPELTASRQSFRMAMGNPSEFFVDVM [DVL3]	-0.17	-0.0796
MDDDKPFQPKNISKMAELFMECEEEELEPWQKKVEETQDEDDDELIFVGEISSSKPAISNILNRGHSSSSSKGIKSEPHSPGIPEIFRTASQRCRDPPSNPVAASPRFHLVSKSSQSSVTVENASKPDFTKNSQVGSDNSSILLFDSTQESLPPSQDIPAIFREGMKNTSYVLKHPSTSKVNSVTPKKPKTSEDVPQINPSTSLPLIGSPPVTSSQVMLSKGTNTSSPYDAGADYLRACPKCNVQFNLLDPLKYHMKHCCPDMITKFLGVIVKSERPCDEDKTDSETGKLIMLVNEFYYGRHEGVTEKEPKTYTTFKCFSCSKVLKNNIRFMNHMKHHLELEKQNNESWENHTTCQHCYRQYPTPFQLQCHIESTHTPHEFSTICKICELSFETEHILLQHMKDTHKPGEMPYVCQVCQFRSSTFSDVEAHFRAAHENTKNLLCPFCLKVSKMATPYMNHYMKHQKKGVHRCPKCRLQFLTSKEKAEHKAQHRTFIKPKELEGLPPGAKVTIRASLGPLQSKLPTAPFGCAPGTSFLQVTPPTSQNTTARNPRKSNASRSKTSKLHATTSTASKVNTSKPRGRIAKSKAKPSYKQKRQRNRKNKMSLALKNIRCRRGIHKCIECHSKIKDFASHFSIYIHCSFCKYNTNCNKAFVNHMMSSHSNHPGKRFCIFKKHSGTLRGITLVCLKCDFLADSSGLDRMAKHLSQRKTHTCQVIIENVSKSTSTSEPTTGCSLK [ZNF280C]	0.796	-1.44
MAEASSLGRQSPRVVSCLEHSLCPGEPGLQTTAVVSMGSGDHQFNLAEILSQNYSVRGECEEASRCPDKPKEELEKDFISQSNDMPFDELLALYGYEASDPISDRESEGGDVAPNLPDMTLDKEQIAKDLLSGEEEEETQSSADDLTPSVTSHEASDLFPNRSGSRFLADEDREPGSSASSDTEEDSLPANKCKKEIMVGPQFQADLSNLHLNRHCEKIYENEDQLLWDPSVLPEREVEEFLYRAVKRRWHEMAGPQLPEGEAVKDSEQALYELVKCNFNVEEALRRLRFNVKVIRDGLCAWSEEECRNFEHGFRVHGKNFHLIQANKVRTRSVGECVEYYYLWKKSERYDYFAQQTRLGRRKYVPSGTTDADQDLDGSDPDGPGRPRPEQDTLTGMRTDPLSVDGTAGGLDEPGVASDGLPSSEPGPCSFQQLDESPAVPLSHRPPALADPASYQPAVTAPEPDASPRLAVDFALPKELPLISSHVDLSGDPEETVAPAQVALSVTEFGLIGIGDVNPFLAAHPTCPAPGLHSEPLSHCNVMTC [MIER2]	-0.304	0.172
CLIC3	-0.00439	0.369
MAAPTPARPVLTHLLVALFGMGSWAAVNGIWVELPVVVKELPEGWSLPSYVSVLVALGNLGLLVVTLWRRLAPGKDEQVPIRVVQVLGMVGTALLASLWHHVAPVAGQLHSVAFLALAFVLALACCASNVTFLPFLSHLPPRFLRSFFLGQGLSALLPCVLALVQGVGRLECPPAPINGTPGPPLDFLERFPASTFFWALTALLVASAAAFQGLLLLLPPPPSVPTGELGSGLQVGAPGAEEEVEESSPLQEPPSQAAGTTPGPDPKAYQLLSARSACLLGLLAATNALTNGVLPAVQSFSCLPYGRLAYHLAVVLGSAANPLACFLAMGVLCRSLAGLGGLSLLGVFCGGYLMALAVLSPCPPLVGTSAGVVLVVLSWVLCLGVFSYVKVAASSLLHGGGRPALLAAGVAIQVGSLLGAVAMFPPTSIYHVFHSRKDCADPCDS [SLC52A2]	0.202	-0.143
